Results reported in paper PMC9092175.

Legend:
[1] = molecular target: plant virus-based immunosorbent nanoparticle (VIN): assembled turnip vein clearing virus (TVCV) virion of coat protein Fc-affinity ligand fusion (CP-FcAL) (turnip vein clearing virus | S. aureus) (UniProt Q88922); assay: co-sedimentation; affinity sedimentation: purified VIN mixed in free suspension with a pre-purified target; VIN-target complex pelleted (12,000 x g, 10 min for hIgG; 20,000 x g, 20 min for the Fc-fusions); eluted with 0.1 M glycine-HCl pH 2.5; SDS-PAGE and Western blot
[2] = molecular target: plant virus-based immunosorbent nanoparticle (VIN): assembled turnip vein clearing virus (TVCV) virion of coat protein Fc-affinity ligand fusion (CP-FcAL) (turnip vein clearing virus | S. aureus) (UniProt Q88922); assay: pull-down; magnetic separation: VIN covalently coupled to superparamagnetic particles (VIN-MP), hIgG in PBS; eluted with 0.2 M glycine buffer pH 2.5

human immunoglobulin G (hIgG) (antibody)
recovery of the feed hIgG [1]: 95%
binding capacity per mass of magnetic particle (µg hIgG/mg MP) [2]: > 1000
hIgG binding/elution load per mass of VIN (mg hIgG/mg VIN) [2]: 0.3
hIgG elution recovery per mass of VIN, VIN-MP relative to uncoupled VIN [2]: 35 to 55%
recovery of the feed hIgG [2]: 42%
